Assay results: patent publication US20030165934

Assays:
[1] = system: NH2-terminal fragment of ATRIP isolated from bacteria
[2] = system: full length Flag-ATRIP protein purified from insect cells following baculovirus infection

Chain of Flag-ATR (ATR tagged with a Flag epitope, overexpressed in 293/293T cells) (chain, as listed by the source): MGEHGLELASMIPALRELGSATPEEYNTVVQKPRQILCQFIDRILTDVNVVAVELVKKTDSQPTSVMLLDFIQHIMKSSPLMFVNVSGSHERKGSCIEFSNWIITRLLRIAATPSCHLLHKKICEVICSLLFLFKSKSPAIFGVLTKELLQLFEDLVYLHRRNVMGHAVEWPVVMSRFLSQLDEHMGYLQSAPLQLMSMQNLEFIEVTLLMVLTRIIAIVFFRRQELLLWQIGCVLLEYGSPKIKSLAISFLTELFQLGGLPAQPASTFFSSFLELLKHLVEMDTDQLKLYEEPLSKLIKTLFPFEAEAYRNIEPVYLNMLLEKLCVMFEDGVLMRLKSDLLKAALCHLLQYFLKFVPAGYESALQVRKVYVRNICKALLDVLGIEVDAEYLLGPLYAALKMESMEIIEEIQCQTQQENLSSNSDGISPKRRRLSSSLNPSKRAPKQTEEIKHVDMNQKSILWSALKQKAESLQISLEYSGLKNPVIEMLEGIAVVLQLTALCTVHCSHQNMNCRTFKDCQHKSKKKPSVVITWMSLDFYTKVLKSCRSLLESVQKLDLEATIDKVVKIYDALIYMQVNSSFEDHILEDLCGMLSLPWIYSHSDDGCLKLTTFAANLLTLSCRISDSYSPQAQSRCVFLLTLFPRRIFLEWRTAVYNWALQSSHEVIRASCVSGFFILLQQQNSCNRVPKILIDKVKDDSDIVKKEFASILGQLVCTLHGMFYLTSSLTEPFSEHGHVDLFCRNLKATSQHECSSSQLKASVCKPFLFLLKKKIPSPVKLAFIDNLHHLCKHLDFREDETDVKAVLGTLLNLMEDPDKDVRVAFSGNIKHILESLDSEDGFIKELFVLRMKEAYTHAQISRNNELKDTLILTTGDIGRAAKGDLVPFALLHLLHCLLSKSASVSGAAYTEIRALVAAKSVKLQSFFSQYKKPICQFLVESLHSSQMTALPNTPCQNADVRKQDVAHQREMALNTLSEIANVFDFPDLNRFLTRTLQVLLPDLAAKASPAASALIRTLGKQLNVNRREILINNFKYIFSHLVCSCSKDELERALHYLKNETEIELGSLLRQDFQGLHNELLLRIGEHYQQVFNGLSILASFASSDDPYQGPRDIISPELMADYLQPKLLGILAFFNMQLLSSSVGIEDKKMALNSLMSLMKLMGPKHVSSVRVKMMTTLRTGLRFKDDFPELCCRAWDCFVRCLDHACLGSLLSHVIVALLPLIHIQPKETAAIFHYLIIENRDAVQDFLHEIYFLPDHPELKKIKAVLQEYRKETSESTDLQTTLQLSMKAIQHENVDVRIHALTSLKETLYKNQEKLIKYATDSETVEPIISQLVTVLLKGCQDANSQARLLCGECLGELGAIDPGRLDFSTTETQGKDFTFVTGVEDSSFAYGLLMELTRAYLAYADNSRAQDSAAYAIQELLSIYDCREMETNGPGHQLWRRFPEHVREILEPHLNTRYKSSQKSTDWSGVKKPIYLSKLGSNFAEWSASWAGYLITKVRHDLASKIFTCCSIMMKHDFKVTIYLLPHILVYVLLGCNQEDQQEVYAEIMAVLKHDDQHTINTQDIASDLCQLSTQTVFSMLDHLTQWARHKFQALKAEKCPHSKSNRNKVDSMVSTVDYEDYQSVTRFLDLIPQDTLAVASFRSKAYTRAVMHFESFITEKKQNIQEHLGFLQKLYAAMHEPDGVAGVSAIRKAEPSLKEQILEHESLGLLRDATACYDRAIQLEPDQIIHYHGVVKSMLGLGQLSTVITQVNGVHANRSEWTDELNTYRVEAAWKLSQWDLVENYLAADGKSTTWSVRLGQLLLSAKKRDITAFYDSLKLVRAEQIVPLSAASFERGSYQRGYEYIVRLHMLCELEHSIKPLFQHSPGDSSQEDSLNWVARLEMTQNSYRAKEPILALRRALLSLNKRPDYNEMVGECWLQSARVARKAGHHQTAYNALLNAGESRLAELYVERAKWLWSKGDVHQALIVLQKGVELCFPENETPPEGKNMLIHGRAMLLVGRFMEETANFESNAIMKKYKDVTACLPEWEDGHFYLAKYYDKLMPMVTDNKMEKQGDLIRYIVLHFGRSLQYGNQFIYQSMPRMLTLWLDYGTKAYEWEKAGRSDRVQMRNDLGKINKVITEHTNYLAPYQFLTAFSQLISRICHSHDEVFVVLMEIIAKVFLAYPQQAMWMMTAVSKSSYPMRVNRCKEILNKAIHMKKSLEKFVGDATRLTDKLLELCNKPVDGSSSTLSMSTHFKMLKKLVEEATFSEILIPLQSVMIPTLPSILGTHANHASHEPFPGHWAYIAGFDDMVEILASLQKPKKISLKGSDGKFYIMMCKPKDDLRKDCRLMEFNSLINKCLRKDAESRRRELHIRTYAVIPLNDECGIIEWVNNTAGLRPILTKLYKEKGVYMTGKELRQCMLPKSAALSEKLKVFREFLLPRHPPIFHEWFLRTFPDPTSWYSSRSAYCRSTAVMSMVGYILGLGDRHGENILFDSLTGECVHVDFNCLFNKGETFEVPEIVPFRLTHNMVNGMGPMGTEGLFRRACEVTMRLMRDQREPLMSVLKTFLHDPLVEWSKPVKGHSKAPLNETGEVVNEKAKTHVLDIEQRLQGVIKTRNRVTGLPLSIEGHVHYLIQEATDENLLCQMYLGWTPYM
Chain of NH2-terminal fragment of ATRIP isolated from bacteria (chain, as listed by the source): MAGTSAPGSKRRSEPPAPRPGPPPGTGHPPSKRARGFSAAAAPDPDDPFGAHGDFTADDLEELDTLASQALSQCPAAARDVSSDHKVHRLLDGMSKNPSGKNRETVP

“Flag-ATR (ATR tagged with a Flag epitope, overexpressed in 293/293T cells)” was tested, and the “^32P-labeling in kinase assay” value (Myc(3x)-tagged ATRIP) was “kinase assays with Flag-ATR immunoprecipitated from cells that also expressed Myc-ATRIP revealed ^32P-labeling of co-immunoprecipitated Myc-ATRIP”, the “phosphorylation in a kinase reaction” value [1] was “recombinant full-length ATRIP isolated from baculovirus-infected insect cells and an NH2-terminal fragment of ATRIP isolated from bacteria could both be phosphorylated when placed in a kinase reaction with ATR isolated from human cells” and the “phosphorylation in a kinase reaction” value [2] was “recombinant full-length ATRIP isolated from baculovirus-infected insect cells and an NH2-terminal fragment of ATRIP isolated from bacteria could both be phosphorylated when placed in a kinase reaction with ATR isolated from human cells”.
